Experimental data: publication PMC3810028
Like-named read-outs stand apart in the source and are kept apart here.

How the values were obtained:
[1] = biological target: HIV-1 YU-2 envelope gp120 with a C-terminal hexa-histidine tag (HIV-1 (YU-2 strain)) (UniProt P35961); assay: ITC
[2] = biological target: HIV-1 YU-2 envelope gp120 with a C-terminal hexa-histidine tag (HIV-1 (YU-2 strain)) (UniProt P35961); assay: SPR
[3] = biological target: HIV-1 YU-2 envelope gp120 with a C-terminal hexa-histidine tag (HIV-1 (YU-2 strain)) (UniProt P35961); assay: SPR; remark: listed apart in the source
[4] = biological target: HIV-1 YU-2 envelope gp120 with a C-terminal hexa-histidine tag (HIV-1 (YU-2 strain)) (UniProt P35961)

dH [1] [kcalmol^−1]	IC50 [2] [nM]	Substance	Kd [1] [nM]	IC50 [3] [nM]	EC50 of inhibition of single-round infection by HIV-1BaL (Env of BaL, not YU-2) [4] [nM]
-14.9	50.8	peptide triazole KR-41 (UM-24 with Trp 6 replaced by L-3-benzothienylalanine, Bta)	–	–	–
-14.6	208	peptide triazole KR-42 (DCit-DAsn-DAsn-DIle-LFtP-LBta-DSer-NH2)	282	119	–

Substance	dH [1] [kcalmol^−1]	IC50 [2] [nM]	Kd [1] [nM]	IC50 [3] [nM]	EC50 of inhibition of single-round infection by HIV-1BaL (Env of BaL, not YU-2) [4] [nM]
peptide triazole UM-24 (Cit-N-N-I-X-W-S-CONH2)	-14.1	71.5	21.1	45	6200
